Residue numbers refer to the chain shown, from its start. Names may count otherwise.

Sequences and labels used below:
T1: Recombinant DR3-Fc (R&D Systems, cat. #943-D3) (UniProt Q93038 25-199, limits assumed)
T1 construct: dimeric MW~92 kDa; also called DR3 receptor; Fc-DR3; not shown: Fc part of the bought fusion
T1 sequence (looked up): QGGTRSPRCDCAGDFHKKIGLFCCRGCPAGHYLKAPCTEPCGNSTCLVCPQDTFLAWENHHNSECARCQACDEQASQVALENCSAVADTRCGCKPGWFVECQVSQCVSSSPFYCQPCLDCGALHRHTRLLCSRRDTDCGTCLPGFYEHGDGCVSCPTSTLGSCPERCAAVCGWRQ

T2: DcR3 (UniProt O95407 30-300, limits assumed)
T2 construct: the construct is not described; also called decoy receptor DcR3; TNFRSF6B
T2 sequence (looked up): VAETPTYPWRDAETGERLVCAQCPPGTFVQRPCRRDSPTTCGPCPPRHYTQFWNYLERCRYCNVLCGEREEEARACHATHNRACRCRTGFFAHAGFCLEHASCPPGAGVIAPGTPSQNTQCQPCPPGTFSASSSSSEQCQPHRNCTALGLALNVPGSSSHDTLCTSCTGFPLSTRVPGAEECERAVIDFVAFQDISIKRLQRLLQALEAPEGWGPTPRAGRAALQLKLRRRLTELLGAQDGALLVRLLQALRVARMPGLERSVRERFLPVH

B1: TL1W104 (His-TEV-TL1A T185L) (ligand)
chain: HHHHHHENLYFQGLKGQEFAPSHQQVYAPLRADGDKPRAHLTVVRQTPTQHFKNQFPALHWEHELGLAFTKNRMNYTNKFLLIPESGDYFIYSQVTFRGMTSECSEIRQAGRPNKPDSITVVITKVLDSYPEPTQLLMGTKSVCEVGSNWFQPIYLGAMFSLQEGDKLMVNVSDISLVDYTKEDKTFFGAFLL
notes: also called TL1W104 (T185L)
B2: TL1W136 (His-TEV-TL1A K240F) (ligand)
chain: B1 chain with L127T, K182F
notes: also called TL1W136 (K240F)
B3: TL1W124 (His-TEV-TL1A N207K) (ligand)
chain: B1 chain with L127T, N149K
notes: also called TL1W124 (N207K)
B4: TL1W110 (His-TEV-TL1A S187K) (ligand)
chain: B1 chain with L127T, S129K
notes: also called TL1W110 (S187K)
B5: TL1W127 (His-TEV-TL1A Y238A) (ligand)
chain: B1 chain with L127T, Y180A
notes: also called TL1W127 (Y238A)
B6: TL1W116 (His-TEV-TL1A T192K) (ligand)
chain: B1 chain with L127T, T134K
notes: also called TL1W116 (T192K)
B7: TL1W129 (His-TEV-TL1A Y238K) (ligand)
chain: B1 chain with L127T, Y180K
notes: also called TL1W129 (Y238K)
B8: TL1W126 (His-TEV-TL1A F209W) (ligand)
chain: B1 chain with L127T, F151W
notes: also called TL1W126 (F209W)
B9: TL1W105 (His-TEV-TL1A T185N) (ligand)
chain: B1 chain with L127N
notes: also called TL1W105 (T185N)
B10: TL1W107 (His-TEV-TL1A D186Y) (ligand)
chain: B1 chain with L127T, D128Y
notes: also called TL1W107 (D186Y)
B11: TL1W117 (His-TEV-TL1A T192E) (ligand)
chain: B1 chain with L127T, T134E
notes: also called TL1W117 (T192E)
B12: TL1W137 (His-TEV-TL1A K240S) (ligand)
chain: B1 chain with L127T, K182S
notes: also called TL1W137 (K240S)
B13: TL1W106 (His-TEV-TL1A T185D) (ligand)
chain: B1 chain with L127D
notes: also called TL1W106 (T185D)
B14: TL1W120 (His-TEV-TL1A S206K) (ligand)
chain: B1 chain with L127T, S148K
notes: also called TL1W120 (S206K)
B15: TL1W115 (His-TEV-TL1A T192F) (ligand)
chain: B1 chain with L127T, T134F
notes: also called TL1W115 (T192F)
B16: TL1W125 (His-TEV-TL1A N207E) (ligand)
chain: B1 chain with L127T, N149E
notes: also called TL1W125 (N207E)
B17: TL1W119 (His-TEV-TL1A S206F) (ligand)
chain: B1 chain with L127T, S148F
notes: also called TL1W119 (S206F)
B18: TL1W118 (His-TEV-TL1A S206A) (ligand)
chain: B1 chain with L127T, S148A
notes: also called TL1W118 (S206A)
B19: TL1W123 (His-TEV-TL1A N207S) (ligand)
chain: B1 chain with L127T, N149S
notes: also called TL1W123 (N207S)
B20: TL1W112 (His-TEV-TL1A P189F) (ligand)
chain: B1 chain with L127T, P131F
notes: also called TL1W112 (P189F)
B21: TL1W114 (His-TEV-TL1A T192A) (ligand)
chain: B1 chain with L127T, T134A
notes: also called TL1W114 (T192A)
B22: TL1W121 (His-TEV-TL1A S206E) (ligand)
chain: B1 chain with L127T, S148E
notes: also called TL1W121 (S206E)
B23: TL1W111 (His-TEV-TL1A S187D) (ligand)
chain: B1 chain with L127T, S129D
notes: also called TL1W111 (S187D)
B24: TL1W131 (His-TEV-TL1A Y238E) (ligand)
chain: B1 chain with L127T, Y180E
notes: also called TL1W131 (Y238E)
B25: TL1W113 (His-TEV-TL1A P189S) (ligand)
chain: B1 chain with L127T, P131S
notes: also called TL1W113 (P189S)
B26: TL1W132 (His-TEV-TL1A T239A) (ligand)
chain: B1 chain with L127T, T181A
notes: also called TL1W132 (T239A)

One test concerns the target T1, Recombinant DR3-Fc (R&D Systems, cat. …). The test is described as follows: ELISA, DR3-Fc immobilized. How it is done:
All ELISA-based measurements were collected in triplicate, and error values report the standard error between measurements. Recombinant DR3-Fc (R&D Systems, cat. #943-D3), dimeric MW˜92 kDa, was non-specifically immobilized onto plates (Nunc maxisorp, cat. #436110) in 100 μL DR3-Fc, diluted to 10 μg/mL onto a 96-well White Maxisorp plate (Nunc, cat #436110) (O/N, 4° C.). Plates were block for 1 hour at room temperature with 250 μl/well of casein buffer and blocking buffer was removed. 50 μL of TL1A variants were diluted in StartingBlock PBS (Thermo Fisher Scientific), at 25 μg/mL, diluting 3× over each well, according to the plate map description for 20160623) per well on a 96-well White Maxisorp plate (Nunc, cat #: 436110) (overnight at 4° C.).
Plates were washed three times with TBST. 100 μl/well polyclonal rabbit anti-human TL1A-biotin antibody (diluted 1:1000 in Starting Block PBS) was added and plates were incubated for 1 hour at room temperature with shaking at 150 rpm. TL1A-biotin antibody was removed and 100 μl/well streptavidin-HRP conjugate (diluted 1:10,000 in Starting Block PBS) was added to plates. Plates were incubated for 1 hour at room temperature with shaking at 150 rpm. Plates were washed three times with TBST. 100 μl/well POD Chemiluminescence substrate (Roche, cat #: 11582950001) was added immediately prior to reading plate luminescence using a Molecular Devices M5 plate reader with a delay setting of 100 ms.
Variants of TL1A were generated and tested for binding to DR3 and DcR3 by ELISA as described.
B1: the EC50 (commonly the concentration needed to bring the measured effect to its halfway point) turned out to be 49.4 nM and the “Rel EC50” value is 1.9 ratio (head: nM).

On to B2, for which the half-maximal effective concentration (EC50) was 266 nM and the “Rel EC50” value is 10.1 ratio (head: nM).

B3: the EC50 came out at 110 nM and the “Rel EC50” value is 4.2 ratio (head: nM).

B4: the EC50 is 33.7 nM and the “Rel EC50” value is 1.3 ratio (head: nM).

For B5, the EC50 was determined as 4620 nM and the “Rel EC50” value was 176 ratio (head: nM).

For the molecule B6, the EC50 amounted to 77 nM and the “Rel EC50” value was 2.9 ratio (head: nM).

Take B7: the EC50 was determined as 446 nM and the “Rel EC50” value is 17 ratio (head: nM).

As for B8, the EC50 was determined as 56.8 nM and the “Rel EC50” value was 2.2 ratio (head: nM).

Regarding B9, the EC50 was 180 nM and the “Rel EC50” value is 6.9 ratio (head: nM).

For B10, the EC50 was found to be 63.8 nM and the “Rel EC50” value is 2.4 ratio (head: nM).

Take B11: the EC50 came to 113 nM and the “Rel EC50” value is 4.3 ratio (head: nM).

For B12, the EC50 was 336 nM and the “Rel EC50” value is 12.8 ratio (head: nM).

As to B13, the EC50 is 124 nM and the “Rel EC50” value is 4.7 ratio (head: nM).

On to B14, for which the EC50 was found to be 114 nM and the “Rel EC50” value was 4.4 ratio (head: nM).

With B15, the EC50 stood at 14.2 nM and the “Rel EC50” value was 0.5 ratio (head: nM).

For B16, the concentration giving a half-maximal response (EC50) is 506 nM and the “Rel EC50” value was 19.3 ratio (head: nM).

For B17, the EC50 was found to be 87.5 nM and the “Rel EC50” value is 3.3 ratio (head: nM).

With B18, the EC50 stood at 41.7 nM and the “Rel EC50” value was 1.6 ratio (head: nM).

As to B19, the EC50 came out at 26.8 nM and the “Rel EC50” value is 1 ratio (head: nM).

Take B20: the EC50 is 202 nM and the “Rel EC50” value was 7.7 ratio (head: nM).

In the case of B21, the EC50 is 23.3 nM and the “Rel EC50” value is 0.9 ratio (head: nM).

As to B22, the EC50 was determined as 105 nM and the “Rel EC50” value was 4 ratio (head: nM).

Take B23: the EC50 amounted to 44.2 nM and the “Rel EC50” value was 1.7 ratio (head: nM).

On to B24, for which the EC50 was determined as 300 nM and the “Rel EC50” value is 11.5 ratio (head: nM).

Consider B25, for which the EC50 was 1000 nM and the “Rel EC50” value was 38.2 ratio (head: nM).

Turning to B26, the concentration giving a half-maximal response (EC50) is 144 nM and the “Rel EC50” value was 5.5 ratio (head: nM).

Another test concerns the target T2, DcR3. The test is described as follows: ELISA, DcR3. Background: ELISA stands for enzyme-linked immunosorbent assay.
Consider B1, for which the EC50 was 19.3 nM and the “Rel EC50” value is 4.2 ratio (head: nM).

As for B2, it took 178 nM to reach a half-maximal effect (EC50) and the “Rel EC50” value was 38.7 ratio (head: nM).

In the case of B3, the response was half-maximal at 15.4 nM (EC50) and the “Rel EC50” value is 3.4 ratio (head: nM).

On to B4, for which the EC50 is 15.8 nM and the “Rel EC50” value is 3.4 ratio (head: nM).

Turning to B5, the EC50 turned out to be 8.9 nM and the “Rel EC50” value was 1.9 ratio (head: nM).

For B6, it took 23.3 nM to reach a half-maximal effect (EC50) and the “Rel EC50” value was 5.1 ratio (head: nM).

For B7, the half-maximal effective concentration (EC50) is 9 nM and the “Rel EC50” value is 2 ratio (head: nM).

Regarding B8, the midpoint of the response, the EC50, lay at 13.7 nM and the “Rel EC50” value is 3 ratio (head: nM).

B9: the concentration giving a half-maximal response (EC50) stood at 11.3 nM and the “Rel EC50” value is 2.4 ratio (head: nM).

With B10, the EC50 is 6.2 nM and the “Rel EC50” value was 1.4 ratio (head: nM).

In the case of B11, the EC50 was found to be 12 nM and the “Rel EC50” value is 2.6 ratio (head: nM).

For the molecule B12, the EC50 worked out at 11.8 nM and the “Rel EC50” value was 2.6 ratio (head: nM).

Consider B13, for which the EC50 came to 79.9 nM and the “Rel EC50” value was 17.4 ratio (head: nM).

On to B14, for which a half-maximal response (EC50) required 91 nM and the “Rel EC50” value is 19.8 ratio (head: nM).

For the molecule B15, it took 10.6 nM to reach a half-maximal effect (EC50) and the “Rel EC50” value was 2.3 ratio (head: nM).

Regarding B16, it took 9.8 nM to reach a half-maximal effect (EC50) and the “Rel EC50” value was 2.1 ratio (head: nM).

Regarding B17, the EC50 was 8.1 nM and the “Rel EC50” value was 1.8 ratio (head: nM).

For B18, a half-maximal effect (EC50) was put at 8.8 nM and the “Rel EC50” value was 1.9 ratio (head: nM).

For the molecule B19, the EC50 came out at 8.6 nM and the “Rel EC50” value was 1.9 ratio (head: nM).

Take B20: a half-maximal response (EC50) required 66.1 nM and the “Rel EC50” value was 14.4 ratio (head: nM).

Consider B21, for which the EC50 was determined as 10 nM and the “Rel EC50” value was 2.2 ratio (head: nM).

As for B22, the half-maximal effective concentration (EC50) came to 17.2 nM and the “Rel EC50” value was 3.7 ratio (head: nM).

In the case of B23, the 50% effective concentration (EC50) came to 16.7 nM and the “Rel EC50” value was 3.6 ratio (head: nM).

As for B24, it took 6.6 nM to reach a half-maximal effect (EC50) and the “Rel EC50” value was 1.4 ratio (head: nM).

For the molecule B25, a half-maximal response (EC50) required 19.8 nM and the “Rel EC50” value is 4.3 ratio (head: nM).

Consider B26, for which the EC50 was 27.2 nM and the “Rel EC50” value was 5.9 ratio (head: nM).
